Source: PMC6876572

Key:
[1] = biological target: Cof1-decorated (Cofilin-saturated) actin filament (rabbit | S. cerevisiae) (UniProt P68135); test: single-molecule two-colour TIRF imaging; actin filaments (10% Alexa-488, 0.5% biotinylated) anchored along their lengths on streptavidin-coated coverslips, exposed to a mixture of Cy5-Srv2ΔCARP (8.3 or 83 nM hexamers) and 1 µM yeast Cof1 in TIRF buffer (10 mM imidazole pH 7.4, 50 mM KCl, 1 mM MgCl2, 1 mM EGTA, 0.2 mM ATP, 10 mM DTT); dwell and waiting times at the pointed end; kon corrected for unlabeled molecules
[2] = biological target: Cof1-decorated (Cofilin-saturated) actin filament (rabbit | S. cerevisiae) (UniProt P68135)

Substance	average dwell time at the pointed end [1] [s]	fractional occupancy of filament ends at 8.3 nM (calculated from kon and koff) [1] [%]	fractional occupancy of filament ends at 83 nM (calculated from kon and koff) [1] [%]	koff [1] [s⁻¹]	kon [1] [M⁻¹ s⁻¹]	KM of the rate of pointed-end depolymerization against N-Srv2 concentration at 1 µM Cof1 (mf-TIRF, fit to the Michaelis-Menten equation) [2] [µM]
Cy5-maleimide-labeled Srv2ΔCARP (S. cerevisiae Srv2/CAP lacking the CARP domain) (from UniProt P17555 1-526) (domain or fragment)	2.2	16	66	0.45	1.1e+07	
N-Srv2 (N-terminal half of S. cerevisiae Srv2/CAP) (domain or fragment)						0.05
